{
  "source": "patent US20150315621",
  "proteins": {"B1": {"name": "Aspergillus terreus LovG: Esterase (protein)", "chain": "HHHHHHMRYQASPALAKAPRALLCIHGAGCSPAIFRVQLSKLRAALREDFEFVYVTAPFPSSAGPGILPVFADLGPYYSWFESSSGNNNNGPSVGERLAAVHDPIRRTIVDWQTQHPHIPIVGAIGFSEGALVTTLLLWQQQMGRLPWLPRMSVAMLICPWYQDEASQYMRNEVMENHDDDHDSKDTEWQEELVIRIPTLHLQGRDDFALAGSKMLVARHFSPREAQVLEFAGQHQFPNRPRDVLEVINRFRKLCVTVQTLE"}},
  "target": "Aspergillus terreus LovB: Lovastatin nonaketide synthase",
  "data": [
    {"protein": "B1", "values": [
      {"measurement": "offloaded aberrant products 8-10 from LovB in vitro in the absence of LovC (HPLC at 330 nm, LC-MS)", "value": "Upon addition of LovG at equimolar concentration to LovB, the in vitro assay mixture turned significantly more yellow and the extract contained high amounts of offloaded products 8-10, in addition to 6 and 7"},
      {"measurement": "turnover rate of dihydromonacolin L acid (2), in vitro with equimolar (10 µM) LovB, LovC and LovG", "value": "the turnover rate of dihydromonacolin L acid (2) was estimated to be ˜0.12 hour^-1"}
    ]}
  ]
}
